For the assay, the target named is YFP–CPR5 (translational fusion of the yellow fluorescent protein to CPR5) (Arabidopsis thaliana) (UniProt Q9LV85). Put plainly: FRET or BRET. For orientation: Bioluminescence resonance energy transfer reports proximity on the nanometre scale.

Our source for the FRET efficiency values is article PMC5340296.

UniProt Q9LV85, sequence (Q9LV85 whole entry, the tested form may be a part): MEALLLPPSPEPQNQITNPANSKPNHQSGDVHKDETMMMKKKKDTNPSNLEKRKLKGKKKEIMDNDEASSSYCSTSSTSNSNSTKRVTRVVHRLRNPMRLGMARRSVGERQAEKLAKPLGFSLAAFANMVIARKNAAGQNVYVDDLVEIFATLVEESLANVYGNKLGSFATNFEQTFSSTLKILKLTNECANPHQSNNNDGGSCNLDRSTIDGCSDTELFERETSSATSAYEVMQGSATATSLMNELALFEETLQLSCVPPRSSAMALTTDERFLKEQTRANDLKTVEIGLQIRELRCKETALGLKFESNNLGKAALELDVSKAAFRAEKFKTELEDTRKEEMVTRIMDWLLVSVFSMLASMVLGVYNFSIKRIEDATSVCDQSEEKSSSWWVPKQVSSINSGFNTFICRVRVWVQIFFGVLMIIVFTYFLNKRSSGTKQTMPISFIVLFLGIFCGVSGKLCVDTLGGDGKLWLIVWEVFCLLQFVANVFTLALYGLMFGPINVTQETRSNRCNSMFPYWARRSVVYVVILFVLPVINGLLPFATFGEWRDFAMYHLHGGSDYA

As to “CFP–sbZIP60 (cyan fluorescent protein fused to spliced full-length bZIP60) (natural protein)”, the FRET efficiency turned out to be 10%.
